Experiments:
Assay in all cases: cell-based or functional assay
[1] = target: IL-18 polypeptide of SEQ ID NO: 5 (E6K, V11I, C38A, K53A, T63A, C68A, C76A, M86C, C127A) (human) (UniProt Q14116)
[2] = target: IL-18 polypeptide C161 (K8R, V11I, C38A, C76A, Q103E, C127A) (human) (UniProt Q14116)
[3] = target: IL-18 polypeptide C159 (V11I, C38A, K53A, C76A, H109A, C127A) (human) (UniProt Q14116)
[4] = target: IL-18 polypeptide of SEQ ID NO: 30 (E6K, V11I, C38A, K53A, T63A, C76A, C127A) (human) (UniProt Q14116)
[5] = target: IL-18 polypeptide C163 (V11I, C38A, C76A, Q103K, C127A) (human) (UniProt Q14116)
[6] = target: IL-18 polypeptide of SEQ ID NO: 38 (E06K) (human) (UniProt Q14116)
[7] = target: IL-18 polypeptide C156 (V11I, C38A, N41A, K53A, C76A, C127A) (human) (UniProt Q14116)
[8] = target: IL-18 polypeptide of SEQ ID NO: 6 (E6K, V11I, C38A, K53A, T63A, C68A, C76A, D98C, C127A) (human) (UniProt Q14116)
[9] = target: IL-18 polypeptide of SEQ ID NO: 59 (E6K, C38A, K53A) (human) (UniProt Q14116)
[10] = target: IL-18 polypeptide of SEQ ID NO: 37 (S55A) (human) (UniProt Q14116)
[11] = target: IL-18 polypeptide C154 (V11I, E31A, D37A, C38A, K53A, C76A, C127A) (human) (UniProt Q14116)
[12] = target: IL-18 polypeptide of SEQ ID NO: 46 (E06K, K53A, S55A, M51G) (human) (UniProt Q14116)
[13] = target: IL-18 polypeptide C143 (V11I, C38A, K53A, C76A, C127A) (human) (UniProt Q14116)
[14] = target: IL-18 polypeptide of SEQ ID NO: 41 (K53A, S55A) (human) (UniProt Q14116)
[15] = target: IL-18 polypeptide of SEQ ID NO: 35 (Y01G, F02A, E06K, M51G, K53A, D54A, S55A, T63A) (human) (UniProt Q14116)
[16] = target: IL-18 polypeptide of SEQ ID NO: 40 (E06K, S55A) (human) (UniProt Q14116)
[17] = target: IL-18 polypeptide of SEQ ID NO: 39 (E06K, K53A) (human) (UniProt Q14116)
[18] = target: IL-18 polypeptide of SEQ ID NO: 34 (E06K, K53A, S55A) (human) (UniProt Q14116)
[19] = target: IL-18 polypeptide C164 (V11I, C38A, S55H, C76A, C127A) (human) (UniProt Q14116)
[20] = target: IL-18 polypeptide of SEQ ID NO: 50 (E06K, K53A, T63A) (human) (UniProt Q14116)
[21] = target: IL-18 polypeptide C153 (V11I, D37A, C38A, K53A, C76A, C127A) (human) (UniProt Q14116)
[22] = target: IL-18 polypeptide C145 (V11I, C38A, K53A, S55A, C76A, C127A) (human) (UniProt Q14116)
[23] = target: IL-18 polypeptide C162 (K8E, V11I, C38A, C76A, Q103R, C127A) (human) (UniProt Q14116)
[24] = target: IL-18 polypeptide C158 (V11I, C38A, K53A, C76A, G108A, C127A) (human) (UniProt Q14116)
[25] = target: IL-18 polypeptide of SEQ ID NO: 36 (K53A) (human) (UniProt Q14116)
[26] = target: IL-18 polypeptide C147 (V11I, C38A, K53A, D54A, C76A, C127A) (human) (UniProt Q14116)
[27] = target: IL-18 polypeptide of SEQ ID NO: 42 (E06K, K53A, S55A, T63A) (human) (UniProt Q14116)
[28] = target: IL-18 polypeptide of SEQ ID NO: 53 (K53A, T63A) (human) (UniProt Q14116)
Sequence of IL-18 polypeptide of SEQ ID NO: 53 (K53A, T63A) (human) (Q14116 37-193 K89A/T99A): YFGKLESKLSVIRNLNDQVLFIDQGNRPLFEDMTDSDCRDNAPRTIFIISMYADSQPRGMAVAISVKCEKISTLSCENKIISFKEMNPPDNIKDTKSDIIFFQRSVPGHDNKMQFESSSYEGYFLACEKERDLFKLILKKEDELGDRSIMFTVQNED

Sequence of IL-18 polypeptide C147 (V11I, C38A, K53A, D54A, C76A, C127A) (human) (Q14116 37-193 V47I/C74A/K89A/D90A/C112A/C163A): as the sequence (Q14116 37-193 K89A/T99A) above, with V11I, C38A, D54A, A63T, C76A, C127A counted along it
Sequence of IL-18 polypeptide of SEQ ID NO: 46 (E06K, K53A, S55A, M51G) (human) (Q14116 37-193 E42K/M87G/K89A/S91A): as the sequence (Q14116 37-193 K89A/T99A) above, with E6K, M51G, S55A, A63T counted along it
Sequence of IL-18 polypeptide C164 (V11I, C38A, S55H, C76A, C127A) (human) (Q14116 37-193 V47I/C74A/S91H/C112A/C163A): as the sequence (Q14116 37-193 K89A/T99A) above, with V11I, C38A, A53K, S55H, A63T, C76A, C127A counted along it
Sequence of IL-18 polypeptide of SEQ ID NO: 50 (E06K, K53A, T63A) (human) (Q14116 37-193 E42K/K89A/T99A): as the sequence (Q14116 37-193 K89A/T99A) above, with E6K counted along it
Sequence of IL-18 polypeptide of SEQ ID NO: 40 (E06K, S55A) (human) (Q14116 37-193 E42K/S91A): as the sequence (Q14116 37-193 K89A/T99A) above, with E6K, A53K, S55A, A63T counted along it
Sequence of IL-18 polypeptide C156 (V11I, C38A, N41A, K53A, C76A, C127A) (human) (Q14116 37-193 V47I/C74A/N77A/K89A/C112A/C163A): as the sequence (Q14116 37-193 K89A/T99A) above, with V11I, C38A, N41A, A63T, C76A, C127A counted along it
Sequence of IL-18 polypeptide C159 (V11I, C38A, K53A, C76A, H109A, C127A) (human) (Q14116 37-193 V47I/C74A/K89A/C112A/H145A/C163A): as the sequence (Q14116 37-193 K89A/T99A) above, with V11I, C38A, A63T, C76A, H109A, C127A counted along it
Sequence of IL-18 polypeptide C163 (V11I, C38A, C76A, Q103K, C127A) (human) (Q14116 37-193 V47I/C74A/C112A/Q139K/C163A): as the sequence (Q14116 37-193 K89A/T99A) above, with V11I, C38A, A53K, A63T, C76A, Q103K, C127A counted along it
Sequence of IL-18 polypeptide C145 (V11I, C38A, K53A, S55A, C76A, C127A) (human) (Q14116 37-193 V47I/C74A/K89A/S91A/C112A/C163A): as the sequence (Q14116 37-193 K89A/T99A) above, with V11I, C38A, S55A, A63T, C76A, C127A counted along it
Sequence of IL-18 polypeptide of SEQ ID NO: 30 (E6K, V11I, C38A, K53A, T63A, C76A, C127A) (human) (Q14116 other isoform, or with tags, fused parts or gaps with the stated changes): as the sequence (Q14116 37-193 K89A/T99A) above, with E6K, V11I, C38A, C76A, C127A counted along it
Sequence of IL-18 polypeptide of SEQ ID NO: 6 (E6K, V11I, C38A, K53A, T63A, C68A, C76A, D98C, C127A) (human) (Q14116 other isoform, or with tags, fused parts or gaps with the stated changes): as the sequence (Q14116 37-193 K89A/T99A) above, with E6K, V11I, C38A, C68A, C76A, D98C, C127A counted along it
Sequence of IL-18 polypeptide C158 (V11I, C38A, K53A, C76A, G108A, C127A) (human) (Q14116 37-193 V47I/C74A/K89A/C112A/G144A/C163A): as the sequence (Q14116 37-193 K89A/T99A) above, with V11I, C38A, A63T, C76A, G108A, C127A counted along it
Sequence of IL-18 polypeptide of SEQ ID NO: 42 (E06K, K53A, S55A, T63A) (human) (Q14116 37-193 E42K/K89A/S91A/T99A): as the sequence (Q14116 37-193 K89A/T99A) above, with E6K, S55A counted along it
Sequence of IL-18 polypeptide C153 (V11I, D37A, C38A, K53A, C76A, C127A) (human) (Q14116 37-193 V47I/D73A/C74A/K89A/C112A/C163A): as the sequence (Q14116 37-193 K89A/T99A) above, with V11I, D37A, C38A, A63T, C76A, C127A counted along it
Sequence of IL-18 polypeptide C143 (V11I, C38A, K53A, C76A, C127A) (human) (Q14116 37-193 V47I/C74A/K89A/C112A/C163A): as the sequence (Q14116 37-193 K89A/T99A) above, with V11I, C38A, A63T, C76A, C127A counted along it
Sequence of IL-18 polypeptide of SEQ ID NO: 37 (S55A) (human) (Q14116 37-193 S91A): as the sequence (Q14116 37-193 K89A/T99A) above, with A53K, S55A, A63T counted along it
Sequence of IL-18 polypeptide of SEQ ID NO: 39 (E06K, K53A) (human) (Q14116 37-193 E42K/K89A): as the sequence (Q14116 37-193 K89A/T99A) above, with E6K, A63T counted along it
Sequence of IL-18 polypeptide C161 (K8R, V11I, C38A, C76A, Q103E, C127A) (human) (Q14116 other isoform, or with tags, fused parts or gaps V11I C38A C76A Q103E C127A V11I C38A C76A Q103E C127A): as the sequence (Q14116 37-193 K89A/T99A) above, with K8R, V11I, C38A, A53K, A63T, C76A, Q103E, C127A counted along it
Sequence of IL-18 polypeptide of SEQ ID NO: 59 (E6K, C38A, K53A) (human) (Q14116 other isoform, or with tags, fused parts or gaps C38A K53A C38A K53A): as the sequence (Q14116 37-193 K89A/T99A) above, with E6K, C38A, A63T counted along it
Sequence of IL-18 polypeptide of SEQ ID NO: 41 (K53A, S55A) (human) (Q14116 37-193 K89A/S91A): as the sequence (Q14116 37-193 K89A/T99A) above, with S55A, A63T counted along it
Sequence of IL-18 polypeptide of SEQ ID NO: 36 (K53A) (human) (Q14116 37-193 K89A): as the sequence (Q14116 37-193 K89A/T99A) above, with A63T counted along it
Sequence of IL-18 polypeptide C162 (K8E, V11I, C38A, C76A, Q103R, C127A) (human) (Q14116 other isoform, or with tags, fused parts or gaps V11I C38A C76A Q103R C127A V11I C38A C76A Q103R C127A): as the sequence (Q14116 37-193 K89A/T99A) above, with K8E, V11I, C38A, A53K, A63T, C76A, Q103R, C127A counted along it
Sequence of IL-18 polypeptide of SEQ ID NO: 5 (E6K, V11I, C38A, K53A, T63A, C68A, C76A, M86C, C127A) (human) (Q14116 other isoform, or with tags, fused parts or gaps with the stated changes): as the sequence (Q14116 37-193 K89A/T99A) above, with E6K, V11I, C38A, C68A, C76A, M86C, C127A counted along it
Sequence of IL-18 polypeptide of SEQ ID NO: 35 (Y01G, F02A, E06K, M51G, K53A, D54A, S55A, T63A) (human) (Q14116 37-193 Y37G/F38A/E42K/M87G/K89A/D90A/S91A/T99A): as the sequence (Q14116 37-193 K89A/T99A) above, with Y1G, F2A, E6K, M51G, D54A, S55A counted along it
Sequence of IL-18 polypeptide of SEQ ID NO: 34 (E06K, K53A, S55A) (human) (Q14116 37-193 E42K/K89A/S91A): as the sequence (Q14116 37-193 K89A/T99A) above, with E6K, S55A, A63T counted along it
Sequence of IL-18 polypeptide of SEQ ID NO: 38 (E06K) (human) (Q14116 37-193 E42K): as the sequence (Q14116 37-193 K89A/T99A) above, with E6K, A53K, A63T counted along it
Sequence of IL-18 polypeptide C154 (V11I, E31A, D37A, C38A, K53A, C76A, C127A) (human) (Q14116 37-193 V47I/E67A/D73A/C74A/K89A/C112A/C163A): as the sequence (Q14116 37-193 K89A/T99A) above, with V11I, E31A, D37A, C38A, A63T, C76A, C127A counted along it

Fc-fused human IL-18 binding protein isoform a (IL-18BPa) (from UniProt O95998 31-194) (Fc fusion)
IC50 of IL-18BPa inhibition of IFNγ induction in NK-92 cells [1]: 62.4 nM | IC50 of IL-18BPa inhibition of IFNγ induction in NK-92 cells [2]: 7.29 nM | IC50 of IL-18BPa inhibition of IFNγ induction in NK-92 cells [3]: 3.18 nM | IC50 of IL-18BPa inhibition of IFNγ induction in NK-92 cells [4]: 284 nM | IC50 of IL-18BPa inhibition of IFNγ induction in NK-92 cells [5]: 0.456 nM | IC50 of IL-18BPa inhibition of IFNγ induction in NK-92 cells [6]: 7.79 nM | IC50 of IL-18BPa inhibition of IFNγ induction in NK-92 cells [7]: 6.08 nM | IC50 of IL-18BPa inhibition of IFNγ induction in NK-92 cells [8]: 5.85 nM | IC50 of IL-18BPa inhibition of IFNγ induction in NK-92 cells [9]: 146 nM | IC50 of IL-18BPa inhibition of IFNγ induction in NK-92 cells [10]: 4.46 nM | IC50 of IL-18BPa inhibition of IFNγ induction in NK-92 cells [11]: 3.23 nM | IC50 of IL-18BPa inhibition of IFNγ induction in NK-92 cells [12]: 0.189 nM | IC50 of IL-18BPa inhibition of IFNγ induction in NK-92 cells [13]: 7.52 nM | IC50 of IL-18BPa inhibition of IFNγ induction in NK-92 cells [14]: 37.3 nM | IC50 of IL-18BPa inhibition of IFNγ induction in NK-92 cells [15]: > 55 nM | IC50 of IL-18BPa inhibition of IFNγ induction in NK-92 cells [16]: 15 nM | IC50 of IL-18BPa inhibition of IFNγ induction in NK-92 cells [17]: > 703 nM | IC50 of IL-18BPa inhibition of IFNγ induction in NK-92 cells [18]: 229 nM | IC50 of IL-18BPa inhibition of IFNγ induction in NK-92 cells [19]: 0.885 nM | IC50 of IL-18BPa inhibition of IFNγ induction in NK-92 cells [20]: > 1000 nM | IC50 of IL-18BPa inhibition of IFNγ induction in NK-92 cells [21]: 3.71 nM | IC50 of IL-18BPa inhibition of IFNγ induction in NK-92 cells [22]: 733 nM | IC50 of IL-18BPa inhibition of IFNγ induction in NK-92 cells [23]: 0.823 nM | IC50 of IL-18BPa inhibition of IFNγ induction in NK-92 cells [24]: 1.81 nM | IC50 of IL-18BPa inhibition of IFNγ induction in NK-92 cells [25]: 27.3 nM | IC50 of IL-18BPa inhibition of IFNγ induction in NK-92 cells [26]: 5.05 nM | IC50 of IL-18BPa inhibition of IFNγ induction in NK-92 cells [27]: 1060 nM | IC50 of IL-18BPa inhibition of IFNγ induction in NK-92 cells [28]: 18.2 nM
